# In patent publication US20100003727:
# T1: lipoamide-containing aminomethyl transferase (GcvH, H-protein) of C. jeikeium
# T1 chain: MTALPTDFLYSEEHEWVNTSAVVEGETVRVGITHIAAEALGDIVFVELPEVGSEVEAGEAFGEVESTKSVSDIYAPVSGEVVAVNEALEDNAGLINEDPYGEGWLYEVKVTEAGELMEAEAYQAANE
# B1: lipoyl transferase (LipB protein) of C. jeikeium (protein)
# chain: MGFQQGSIRKANMGTTGTNDGATTPPANTSTPAVDIDVRDLGTVDYEDTWHLQANLAAQRAEEKIPDTILLLQHPPTYTAGKRTQDSDRPTNGLPVVDVDRGGRITWHGPGQLVAYPIIKLADPVDVVDYVRRLEQALIQTCEDLGLHGTGRVEGRSGVWLPAGVINGELKPARKIAAIGIRVTRGVTMHGVALNCDNTMEYYDHIVPCGLADAGVTTLTEELGRDVSVSDAYSSLAHNLVDALNGDLPVHS
# Biological target: T1, lipoamide-containing aminomethyl …
protein,measurement,value
B1,"growth of serine-auxotrophic C. glutamicum OM264C transformants (pOM620AF, pOM621AR) on minimal glycine plates without serine and without lipoic acid","both transformants grew, while OM264C(pCLIK) did not"
